Key:
MBP–Apm1-Δ2–158 = molecular target: T1, MBP–Apm1-Δ2–158 (S. cerevisiae, UniProt Q00776 1-475, Δ2–158); assay: pull-down
T1 sequence (looked up): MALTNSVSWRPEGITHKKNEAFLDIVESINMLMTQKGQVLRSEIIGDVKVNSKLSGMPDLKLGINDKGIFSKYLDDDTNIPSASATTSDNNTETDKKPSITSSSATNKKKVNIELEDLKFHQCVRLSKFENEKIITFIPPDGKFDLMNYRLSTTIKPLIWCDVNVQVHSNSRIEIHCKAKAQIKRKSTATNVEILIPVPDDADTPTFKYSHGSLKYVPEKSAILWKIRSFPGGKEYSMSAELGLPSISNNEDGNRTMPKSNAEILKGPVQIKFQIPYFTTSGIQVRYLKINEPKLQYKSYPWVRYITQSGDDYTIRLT

MBP-Apm1 = molecular target: T2, MBP-Apm1 (S. cerevisiae, UniProt Q00776 1-475); assay: pull-down
T2 sequence (looked up): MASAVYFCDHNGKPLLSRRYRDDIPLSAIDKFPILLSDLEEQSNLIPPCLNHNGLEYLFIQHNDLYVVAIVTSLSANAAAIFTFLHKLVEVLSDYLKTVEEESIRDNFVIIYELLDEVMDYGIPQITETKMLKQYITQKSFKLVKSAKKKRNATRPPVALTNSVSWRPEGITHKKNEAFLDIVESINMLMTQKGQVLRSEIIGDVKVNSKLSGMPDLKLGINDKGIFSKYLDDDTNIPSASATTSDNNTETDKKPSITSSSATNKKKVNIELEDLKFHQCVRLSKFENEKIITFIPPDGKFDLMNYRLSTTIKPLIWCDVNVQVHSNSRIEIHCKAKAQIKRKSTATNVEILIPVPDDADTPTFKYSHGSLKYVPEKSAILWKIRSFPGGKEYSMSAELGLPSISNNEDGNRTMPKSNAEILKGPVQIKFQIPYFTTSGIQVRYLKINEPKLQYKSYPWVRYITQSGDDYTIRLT

binding result (MBP–Apm1-Δ2–158): binds
binding result (MBP-Apm1): binds
B1: Ste13-GST (Ste13p cytosolic domain, residues 1–118, fused to the NH2 terminus of GST) (domain or fragment, S. cerevisiae, UniProt P33894 1-118, looked up)
chain: MSASTHSHKRKNSHLFPQRKSSNSSMDKPFFPNNDSVANTDPQSNENGHTINEIRPTEATIDVTDVPQTPFLQEQYSMRPRRESFQFNDIENQHHTHSFFSVNKFNRRWGEWSLPEKR
